Source: publication doi:10.1101/2024.09.24.614577 (bioRxiv, 2024)

Molecular target: the molecule itself
Assay: cryo-EM structure

B1: human GPR155 (residues 1-870), construct without the eGFP tag (receptor, UniProt Q7Z3F1 1-870, looked up)
chain: MNSNLPAENLTIAVNMTKTLPTAVTHGFNSTNDPPSMSITRLFPALLECFGIVLCGYIAGRANVITSTQAKGLGNFVSRFALPALLFKNMVVLNFSNVDWSFLYSILIAKASVFFIVCVLTLLVASPDSRFSKAGLFPIFATQSNDFALGYPIVEALYQTTYPEYLQYIYLVAPISLMMLNPIGFIFCEIQKWKDTQNASQNKIKIVGLGLLRVLQNPIVFMVFIGIAFNFILDRKVPVYVENFLDGLGNSFSGSALFYLGLTMVGKIKRLKKSAFVVLILLITAKLLVLPLLCREMVELLDKGDSVVNHTSLSNYAFLYGVFPVAPGVAIFATQFNMEVEIITSGMVISTFVSAPIMYVSAWLLTFPTMDPKPLAYAIQNVSFDISIVSLISLIWSLAILLLSKKYKQLPHMLTTNLLIAQSIVCAGMMIWNFVKEKNFVGQILVFVLLYSSLYSTYLWTGLLAISLFLLKKRERVQIPVGIIIISGWGIPALLVGVLLITGKHNGDSIDSAFFYGKEQMITTAVTLFCSILIAGISLMCMNQTAQAGSYEGFDQSQSHKVVEPGNTAFEESPAPVNEPELFTSSIPETSCCSCSMGNGELHCPSIEPIANTSTSEPVIPSFEKNNHCVSRCNSQSCILAQEEEQYLQSGDQQLTRHVLLCLLLIIGLFANLSSCLWWLFNQEPGRLYVELQFFCAVFNFGQGFISFGIFGLDKHLIILPFKRRLEFLWNNKDTAENRDSPVSEEIKMTCQQFIHYHRDLCIRNIVKERRCGAKTSAGTFCGCDLVSWLIEVGLASDRGEAVIYGDRLVQGGVIQHITNEYEFRDEYLFYRFLQKSPEQSPPAINANTLQQERYKEIEHSSPPSHSPKT
- stoichiometry N: 2
